Test results: article PMC5940811, “The lactose operon from Lactobacillus casei is involved in the transport and metabolism of the human milk oligosaccharide core-2 N-acetyllactosamine” (Scientific Reports, 2018)

Substrate: O=[N+]([O-])c1ccccc1O[C@@H]1O[C@H](COP(=O)(O)O)[C@H](O)[C@H](O)[C@H]1O
Assay: purified protein
Type: biochemical, Lacticaseibacillus casei
Details: activity assay in 100 mM Tris-HCl pH 7.0, 37 °C, kinetics as in cited earlier work

B1: phospho-β-galactosidase LacG; 6x(His)LacG (Lacticaseibacillus casei BL23) (protein)
chain: MSKQLPQDFVMGGATAAYQVEGATKEDGKGRVLWDDFLDKQGRFKPDPAADFYHRYDEDLALAEKYGHQVIRVSIAWSRIFPDGAGEVEPRGVAFYHKLFADCAAHHIEPFVTLHHFDTPERLHEAGDWLSQEMLDDFVAYAKFCFEEFSEVKYWITINEPTSMAVQQYTSGTFPPAESGRFDKTFQAEHNQMVAHARIVNLYKSMQLGGQIGIVHALQTVYPYSDSAVDHHAAELQDALENRLYLDGTLAGEYHQETLALVKEILDANHQPMFQSTPQEMKAIDEAAHQLDFVGVNNYFSKWLRAYHGKSETIHNGDGTKGSSVARLQGVGEEKLPDGIETTDWDWSIYPRGMYDILMRIHNDYPLVPVTYVTENGIGLKESLPENATPDTVIEDPKRIDYVKKYLSAMADAIHDGANVKGYFIWSLQDQFSWTNGYSKRYGLFFVDFPTQNRYIKQSAEWFKSVSETHIIPD
notes: full coding region in pQE80 (BamHI/PstI), 6xHis tag (N-terminal by vector), E. coli BE50 host, purified; 55 kDa, calculated tagged mass 55,305 Da
Km: 3000 µM
